Data as given in US20150322445A1.

Assays:
[1] = target: Leavenworthia alabamica Lal2 polypeptide, a1-1 allele (Leavenworthia alabamica); test: cell-based or functional assay
[2] = target: Leavenworthia alabamica Lal2 polypeptide, a1-2 allele (Leavenworthia alabamica); test: cell-based or functional assay
Leavenworthia alabamica Lal2 polypeptide, a1-2 allele (Leavenworthia alabamica), sequence (main, as listed by the source): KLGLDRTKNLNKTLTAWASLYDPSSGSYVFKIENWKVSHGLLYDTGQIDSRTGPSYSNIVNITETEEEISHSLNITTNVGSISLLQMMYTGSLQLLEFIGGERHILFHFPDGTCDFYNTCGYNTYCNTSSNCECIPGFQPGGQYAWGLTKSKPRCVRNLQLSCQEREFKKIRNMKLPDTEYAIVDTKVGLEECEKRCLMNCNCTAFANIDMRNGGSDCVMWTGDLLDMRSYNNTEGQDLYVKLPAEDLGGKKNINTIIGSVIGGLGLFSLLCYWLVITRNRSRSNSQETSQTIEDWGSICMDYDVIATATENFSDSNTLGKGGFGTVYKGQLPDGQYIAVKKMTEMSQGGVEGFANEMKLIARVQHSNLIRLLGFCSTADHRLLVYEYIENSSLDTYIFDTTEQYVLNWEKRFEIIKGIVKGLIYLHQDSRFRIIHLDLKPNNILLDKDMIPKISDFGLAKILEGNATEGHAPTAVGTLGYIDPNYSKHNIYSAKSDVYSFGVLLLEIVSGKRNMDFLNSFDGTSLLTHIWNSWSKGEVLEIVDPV

Leavenworthia alabamica Lal2 polypeptide, a1-1 allele (Leavenworthia alabamica), sequence (chain, as listed by the source limits assumed, form in doubt): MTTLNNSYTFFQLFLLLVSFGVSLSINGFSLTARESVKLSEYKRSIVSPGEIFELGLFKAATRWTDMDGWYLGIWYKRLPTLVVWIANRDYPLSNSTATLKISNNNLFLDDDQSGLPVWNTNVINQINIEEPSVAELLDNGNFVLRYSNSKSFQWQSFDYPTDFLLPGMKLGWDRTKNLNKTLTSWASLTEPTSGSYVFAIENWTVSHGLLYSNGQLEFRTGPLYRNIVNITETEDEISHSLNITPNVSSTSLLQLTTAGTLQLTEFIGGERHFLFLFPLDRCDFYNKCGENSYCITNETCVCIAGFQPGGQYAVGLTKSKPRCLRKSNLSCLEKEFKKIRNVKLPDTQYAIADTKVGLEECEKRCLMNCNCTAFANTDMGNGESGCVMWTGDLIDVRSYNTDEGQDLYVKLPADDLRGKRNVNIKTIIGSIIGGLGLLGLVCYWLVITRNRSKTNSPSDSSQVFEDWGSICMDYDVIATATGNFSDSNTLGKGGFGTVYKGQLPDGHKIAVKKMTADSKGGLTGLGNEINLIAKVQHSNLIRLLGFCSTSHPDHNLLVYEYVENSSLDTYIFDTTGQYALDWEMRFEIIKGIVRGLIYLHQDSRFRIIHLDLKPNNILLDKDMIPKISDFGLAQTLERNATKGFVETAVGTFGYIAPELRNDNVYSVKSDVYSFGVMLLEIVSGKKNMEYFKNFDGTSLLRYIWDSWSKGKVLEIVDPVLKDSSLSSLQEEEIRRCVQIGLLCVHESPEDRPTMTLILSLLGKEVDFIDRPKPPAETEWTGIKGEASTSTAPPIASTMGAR

Leavenworthia alabamica SCRL polypeptide, a1-1 allele
Pollen rejection reactions observed (fewer than ten pollen tubes in the pistil); female line 1-15 (Lal2 transformant) x male line 3-13 (SCRL transformant), 5 crosses [1]: 3 of 5 crosses

Leavenworthia alabamica SCRL polypeptide, a1-1 allele (ligand)
Pollen rejection reactions observed (fewer than ten pollen tubes in the pistil); female line 1-15 (Lal2 transformant) x male line 4-21 (SCRL transformant), 5 crosses [1]: 3 of 5 crosses
Pollen rejection reactions observed (fewer than ten pollen tubes in the pistil); female line 1-25 (Lal2 transformant) x male line 3-13 (SCRL transformant), 5 crosses [1]: 4 of 5 crosses
Pollen rejection reactions observed (fewer than ten pollen tubes in the pistil); female line 1-25 (Lal2 transformant) x male line 4-21 (SCRL transformant), 5 crosses [1]: 1 of 5 crosses

MAKSVRLISFIIYLTINMLIFAVNPKPHSSQVPPIPDPGKHRRCF (ligand) [Leavenworthia alabamica SCRL, a2 allele (truncated protein)]
Crosses that produced fruit or had germinated pollen tubes; a1-2 recipient plant x a2 pollen donors (% of 9 crosses) [2]: 89
